Article PMC10397247
Each block holds one binder with its values, some of them ahead of it.

Experiments:
[1] = biological target: T1, 4H3129-bN; assay: two-hybrid library CCNG1;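 note: natural log of median RNA to DNA barcode read ratio; higher means stronger binding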
T1 chain: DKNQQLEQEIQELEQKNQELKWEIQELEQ

[2] = biological target: T2, 4H2586-bN; assay: two-hybrid library CCNG1;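 note: natural log of median RNA to DNA barcode read ratio; higher means stronger binding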
T2 chain: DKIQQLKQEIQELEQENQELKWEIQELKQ

[3] = biological target: T3, 4H3631-bN; assay: two-hybrid library CCNG1;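 note: natural log of median RNA to DNA barcode read ratio; higher means stronger binding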
T3 chain: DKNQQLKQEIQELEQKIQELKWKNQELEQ

[4] = biological target: T4, 4H570-bN; assay: two-hybrid library CCNG1;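 note: natural log of median RNA to DNA barcode read ratio; higher means stronger binding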
T4 chain: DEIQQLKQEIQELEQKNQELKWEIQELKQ

[5] = biological target: T5, 4H1629-bN; assay: two-hybrid library CCNG1;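 note: natural log of median RNA to DNA barcode read ratio; higher means stronger binding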
T5 chain: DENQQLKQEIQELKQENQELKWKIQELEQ

[6] = biological target: T6, 4H3172-bN; assay: two-hybrid library CCNG1;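 note: natural log of median RNA to DNA barcode read ratio; higher means stronger binding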
T6 chain: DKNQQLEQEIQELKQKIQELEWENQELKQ

[7] = biological target: T7, 4H906-bN; assay: two-hybrid library CCNG1
T7 chain: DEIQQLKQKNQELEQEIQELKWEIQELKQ

[8] = biological target: T8, 4H850-bN; assay: two-hybrid library CCNG1
T8 chain: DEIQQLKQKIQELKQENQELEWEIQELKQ

[9] = biological target: T9, 4H3817-bN; assay: two-hybrid library CCNG1
T9 chain: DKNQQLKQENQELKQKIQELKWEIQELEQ

[10] = biological target: T10, 4H2839-bN; assay: two-hybrid library CCNG1
T10 chain: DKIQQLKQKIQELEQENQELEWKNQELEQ

[11] = biological target: T11, 4H619-bN; assay: two-hybrid library CCNG1
T11 chain: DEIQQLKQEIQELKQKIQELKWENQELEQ

[12] = biological target: T12, 4H584-bN; assay: two-hybrid library CCNG1
T12 chain: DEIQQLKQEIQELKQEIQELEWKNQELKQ

[13] = biological target: T13, 4H3414-bN; assay: two-hybrid library CCNG1
T13 chain: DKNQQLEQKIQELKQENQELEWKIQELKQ

[14] = biological target: T14, 4H1804-bN; assay: two-hybrid library CCNG1
T14 chain: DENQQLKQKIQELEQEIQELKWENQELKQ

[15] = biological target: T15, 4H3974-bN; assay: two-hybrid library CCNG1
T15 chain: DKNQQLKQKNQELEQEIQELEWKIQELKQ

[16] = biological target: T16, 4H1985-bN; assay: two-hybrid library CCNG1
T16 chain: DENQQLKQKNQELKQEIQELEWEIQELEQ

[17] = biological target: T17, 4H1710-bN; assay: two-hybrid library CCNG1
T17 chain: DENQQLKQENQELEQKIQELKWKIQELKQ

[18] = biological target: T18, 4H3638-bN; assay: two-hybrid library CCNG1
T18 chain: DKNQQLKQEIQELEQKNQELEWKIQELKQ

[19] = biological target: T19, 4H3907-bN; assay: two-hybrid library CCNG1
T19 chain: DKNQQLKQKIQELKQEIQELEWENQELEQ

[20] = biological target: T20, 4H3592-bN; assay: two-hybrid library CCNG1
T20 chain: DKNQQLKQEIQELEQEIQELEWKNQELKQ

[21] = biological target: T21, 4H4038-bN; assay: two-hybrid library CCNG1
T21 chain: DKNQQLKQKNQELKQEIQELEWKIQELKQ

[22] = biological target: T22, 4H3601-bN; assay: two-hybrid library CCNG1
T22 chain: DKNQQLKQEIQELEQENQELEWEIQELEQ

[23] = biological target: T23, 4H3001-AA; assay: two-hybrid library CCmax
T23 chain: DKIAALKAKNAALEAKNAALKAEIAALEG

[24] = biological target: T24, 4H3015-AA; assay: two-hybrid library CCmax; details: mean of both orientations
T24 chain: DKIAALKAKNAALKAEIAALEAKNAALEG

[25] = biological target: 4H_GCN4; assay: two-hybrid library CCmax
[26] = biological target: T25, 4H2330-AA; assay: two-hybrid library CCmax; details: mean of both orientations
T25 chain: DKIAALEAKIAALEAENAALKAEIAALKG

[27] = biological target: T26, 4H1828-AA; assay: two-hybrid library CCmax; details: mean of both orientations
T26 chain: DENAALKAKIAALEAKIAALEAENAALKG

[28] = biological target: T27, 4H2732-AA; assay: two-hybrid library CCmax; details: mean of both orientations
T27 chain: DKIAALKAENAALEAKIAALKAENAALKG

[29] = biological target: T28, 4H2253-AA; assay: two-hybrid library CCmax; details: mean of both orientations
T28 chain: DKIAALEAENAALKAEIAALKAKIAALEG

[30] = biological target: T29, 4H452-AA; assay: two-hybrid library CCmax; details: mean of both orientations
T29 chain: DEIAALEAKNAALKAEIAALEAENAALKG

[31] = biological target: T30, 4H3073-AA; assay: two-hybrid library CCmax; details: mean of both orientations
T30 chain: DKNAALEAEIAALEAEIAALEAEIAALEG

[32] = biological target: T31, 4H2466-AA; assay: two-hybrid library CCmax; details: mean of both orientations
T31 chain: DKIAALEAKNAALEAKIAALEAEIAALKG

[33] = biological target: T32, 4H3438-AA; assay: two-hybrid library CCmax; details: mean of both orientations
T32 chain: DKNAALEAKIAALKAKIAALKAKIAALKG

[34] = biological target: T33, 4H_BCR; assay: two-hybrid library CCmax; details: mean of both orientations
T33 chain: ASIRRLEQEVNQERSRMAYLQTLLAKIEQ

[35] = biological target: T34, 4H2931-AA; assay: two-hybrid library CCmax; details: mean of both orientations
T34 chain: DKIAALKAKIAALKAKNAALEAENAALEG

[36] = biological target: T35, 4H_APH; assay: two-hybrid library CCmax; details: mean of both orientations
T35 chain: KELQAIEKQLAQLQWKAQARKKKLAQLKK

[37] = biological target: T36, 4H249-AA; assay: two-hybrid library CCmax; details: mean of both orientations
T36 chain: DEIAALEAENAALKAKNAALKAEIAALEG

[38] = biological target: T37, 4H2343-AA; assay: two-hybrid library CCmax; details: mean of both orientations
T37 chain: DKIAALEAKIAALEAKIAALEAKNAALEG

[39] = biological target: T38, 4H2124-AA; assay: two-hybrid library CCmax; details: mean of both orientations
T38 chain: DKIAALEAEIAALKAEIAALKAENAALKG

[40] = biological target: T39, 4H2774-AA; assay: two-hybrid library CCmax; details: mean of both orientations
T39 chain: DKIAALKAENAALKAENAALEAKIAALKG

[41] = biological target: T40, 4H2592-AA; assay: two-hybrid library CCmax; details: mean of both orientations
T40 chain: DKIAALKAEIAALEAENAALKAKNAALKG

[42] = biological target: T41, 4H2165-AA; assay: two-hybrid library CCmax; details: mean of both orientations
T41 chain: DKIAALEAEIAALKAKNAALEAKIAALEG

[43] = biological target: T42, 4H1821-AA; assay: two-hybrid library CCmax
T42 chain: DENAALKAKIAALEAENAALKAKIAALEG

[44] = biological target: T43, 4H347-AA; assay: two-hybrid library CCmax; details: mean of both orientations
T43 chain: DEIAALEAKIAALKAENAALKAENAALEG

[45] = biological target: T44, 4H406-AA; assay: two-hybrid library CCmax; details: mean of both orientations
T44 chain: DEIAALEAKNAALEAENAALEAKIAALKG

[46] = biological target: T45, 4H1930-AA; assay: two-hybrid library CCmax; details: mean of both orientations
T45 chain: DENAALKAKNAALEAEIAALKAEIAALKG

[47] = biological target: GCN2_T; assay: two-hybrid library CCmax; details: mean of both orientations
[48] = biological target: T46, 4H56-AA; assay: two-hybrid library CCmax; details: mean of both orientations
T46 chain: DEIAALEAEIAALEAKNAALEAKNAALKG

[49] = biological target: T47, 4H3858-bN; assay: two-hybrid library CCNG1
T47 chain: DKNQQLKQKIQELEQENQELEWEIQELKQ

[50] = biological target: T48, 4H1449-bN; assay: two-hybrid library CCNG1
T48 chain: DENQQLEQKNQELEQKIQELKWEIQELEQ

[51] = biological target: T49, 4H3613-bN; assay: two-hybrid library CCNG1
T49 chain: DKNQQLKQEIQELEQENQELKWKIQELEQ

[52] = biological target: T50, 4H3628-bN; assay: two-hybrid library CCNG1
T50 chain: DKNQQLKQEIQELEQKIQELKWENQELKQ

[53] = biological target: T51, 4H1544-bN; assay: two-hybrid library CCNG1
T51 chain: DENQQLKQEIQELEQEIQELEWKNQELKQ

[54] = biological target: T52, 4H1899-bN; assay: two-hybrid library CCNG1
T52 chain: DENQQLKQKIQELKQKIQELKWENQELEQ

Sequence of 4H_GCN4 (chain, as listed by the source): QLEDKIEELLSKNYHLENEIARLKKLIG

interaction score [19]: -1.47
interaction score [20]: -0.397
interaction score [21]: -0.372
interaction score [22]: -0.0551
Binder: DKNQQLKQEIQELEQEIQELEWKNQELKQ [4H3592-bN]

interaction score [23]: -1.51
interaction score [24]: -1.83
interaction score [25]: -1.85
interaction score [26]: -0.746
interaction score [27]: -2.13
interaction score [28]: -1.04
interaction score [29]: -0.989
interaction score [30]: -1.25
interaction score [31]: -1.15
interaction score [32]: -1.51
interaction score [33]: -1.77
interaction score [34]: -1.69
interaction score [35]: -1.77
interaction score [36]: -2.19
interaction score [37]: -1.68
interaction score [38]: -1.42
interaction score [39]: -1.19
interaction score [40]: -1.53
interaction score [41]: -1.24
interaction score [42]: -1.28
interaction score [43]: 1.48
interaction score [44]: -1.26
interaction score [45]: -1.34
interaction score [46]: -1.43
interaction score [47]: -1.68
interaction score [48]: -1.44
Binder: DENAALKAKIAALEAENAALKAKIAALEG [4H1821-AA]

Second part, the binder before the results:

Binder: DENQQLKQEIQELKQENQELKWKIQELEQ [4H1629-bN]
interaction score [1]: -0.732
interaction score [2]: -1.65
interaction score [3]: -0.59
interaction score [4]: -2.4
interaction score [5]: 1.42
interaction score [6]: -0.119
interaction score [7]: -1.39
interaction score [8]: -0.949
interaction score [9]: -2.51
interaction score [10]: -1.72
interaction score [11]: -0.476
interaction score [12]: -0.0341
interaction score [13]: -0.735
interaction score [14]: -2.35
interaction score [15]: -0.785
interaction score [16]: -0.575
interaction score [17]: -0.768
interaction score [18]: -1.43

Binder: DENQQLEQKNQELEQKIQELKWEIQELEQ [4H1449-bN]
interaction score [1]: -2.48
interaction score [49]: -0.776
interaction score [3]: -0.391
interaction score [50]: -0.847
interaction score [51]: -1.42
interaction score [4]: -0.581
interaction score [5]: -0.745
interaction score [52]: -0.461
interaction score [6]: -0.588
interaction score [7]: -1.69
interaction score [8]: -1.83
interaction score [9]: -1.76
interaction score [11]: -0.984
interaction score [53]: -1.72
interaction score [12]: -0.471
interaction score [13]: -0.742
interaction score [14]: -2.5
interaction score [54]: -0.773
interaction score [15]: 1.15
interaction score [16]: -1.29
interaction score [17]: -0.246
interaction score [18]: -1.08
